By stoichiometry N is commonly meant the number of molecules, sites or subunits per partner or assembly.

Experiment [1] addresses Selenomethionine-containing TraMΔ as crystallised (TraM 194-322) (Enterococcus faecalis (conjugative plasmid pIP501)). Put plainly: crystal structure.
The target of experiment [2] is TraM C-terminal domain (TraM 190-322) from the Enterococcus faecalis conjugative plasmid pIP501 (Enterococcus faecalis (conjugative plasmid pIP501)). Put plainly: cross-linking.

Where “and” joins values, the source holds several entries; their conditions need not be identical. Identical values can stand only once.

“Selenomethionine-containing TraMΔ as crystallised (TraM 194-322) (domain or fragment)” showed a stoichiometry N in experiment [1] of 3. With “TraM C-terminal domain (TraM 190-322) from the Enterococcus faecalis conjugative plasmid pIP501 (domain or fragment)”, the stoichiometry N in experiment [2] is 2 and 3.

Values taken from publication PMC3548508.
